Results taken from PMC4899112.

Target: VEGF (UniProt P15692)
Assay: native MS

**Q.** Which stoichiometry N does the source give for “VEGF (from UniProt P15692-4 1-191) (ligand)” here?
**A.** 2
